Test results taken from the domain aggregation screens of Martell et al. (2025).

assay: soluble fraction after stress (log2 fold change); higher = more stays soluble; pooled small domains, quantitative proteomics; details: stress: 75 degC
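Note: 20 min heating vs room temperature control held 20 min.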

Sequence | soluble fraction (log2)
HMNEKLNEYLNQVKAYLNTSDNKEDIIKELEAVVLEKAEKKYGQITDESISKILSEFGSPAEVAKEYS | 0.218
HMNEKLRNYIDTLFEHAPTTVRAVELKEEMFQNLTDKYNDLIAQGKSEEAAFNIAVASIGDVDSLIAGLS | 0.179
HMNELGSLIKRKREELGLSQEELARILGYKHKSSINKIELGLADVPRTKVPAFAKALGMTPVEFS | -0.12
HMNELPSVIIMKNGRTRPYELQEISKDEEWLNQTIREHGIEPKDIFIAEFWDGRTAFILNDGRIVK | -0.428
HMNERIKSLRKALGLTQQEFADKLGISRGNIGAYEVGKNAPSDAVISLIVRIFNTNENWLRTGEGEM | -0.776
HMNETSRTRALNILGLKATATQEDIKKAYRSLAKEYHPDKLVGVSEGVKKISEEKFREINEAYEYLI | 0.557
HMNEVIIKNWSNAVGRNIKIKTKRGRPIFGRLLAINDQQLTIASKYMRGNATITVAREDVVSMSVS | -3.08
HMNEVRINTAHIEHKYLGEVKVLDIQEMRNARGRDADPLAFLAIRFWSPRGVLVRVKDSRDATPYWLIS | 0.199
HMNEYHRNISDEEFVRDIKETAIKLKKETLTGVEYSQNGKYHASTIIHRFGSWKKALELAELNTK | -0.225
HMNFNYPVIVKNSRINVSGVLSAAKLYTINGQLLQSYKGSGEFTSKTLTKGIYILQVDNARTKVLV | -4.42
HMNFSKEYILVHSYKEIDILDALIVKYEATLVNREFDLFINSYIKINEDYAKLFRDEIISKTSGSMSIKEL | -2.93
HMNFTKHPENPNFVVYRFTDPERANSFRAELIANNISFEEDTEKKKQLIYTLFAIHTKYYNQSMQINIK | -0.843
HMNFTVTDKNAVLYSNDNTKVYESPDINSKLVTTIAKDLPVNVTGITSNGWFRISLEGTYYVPGNGLEQR | -0.139
HMNGADPYEQLGVTRDASDDELKAAHRKLSRENHPDTLMAKGMPPEFIEQANDKMARINAAWDQIRKERGI | 0.323
HMNGAITLRVRPSDEGKRLDVFVVSQLTGYTRSFVAGLIGDRHFLVNGQPKKPGYRIKSSDTISGVIPAPA | -2.1
HMNGARALAGAIAEAIRKQVYRVNERLPAERELASHYDVSRGTLRSALALLEQEGLVTRKVGSGTFVMPP | -0.761
HMNGNLRAQVLELMGRADYEPLNKSELSRKLDLQGSDRSSLRILMDELERDHSVVRLKKGRFALKVV | -0.852
HMNGQFIELKNTTGTIIEARVLSFQNGKVKLQRNDGLIFVASISIFDSESIEVIKQKVAEISESKKS | -1.97
HMNGQITPSRAKEIALGHAGVSEGSANFKKIKLDNKNGRPAYEIEFIANNSRYEFEINASNGSIIKFNK | -0.321
HMNGYGALVRLGRSRGWVTVEEINDHLPESAVRTAENVQEITEALGRLSIKVFETRPDEDDLLIT | -0.458
HMNHGDATTETQAEIMAILSDMKPHPITELNTIKRPYEQIDTALTYLINEEKIYRMDGMIFIG | -1.38
HMNHYTEEYILKRMKDFFTTHAYITRRDIESLFGFRRSYATKWLKHFRESGVLKQSGPVNSAVYLL | -3.18
HMNIAESIRKYRKASGLTQEEMAKRLGVTTPAVSKWENGITNPDIALLAPIARLFHISVDTLLSYR | -1.83
HMNIDKLVGSTGTVVRSVTPDTAGLVRVNDEDWRASAEEILYERDAIVVEGIEGVTLIVSKLS | -0.813

Sequence | soluble fraction (log2)
HMNIETHIVPKLLAPIRLQEYGVGIFNNIPTKSALKKALKKQLITVDKTVATTATFIKGGETIELAYQ | -3.07
HMNIGEKIKTLRENNNISIEELAEKINDSIENILKYENNELEPTLDKKLALSIALGVTLSDLS | 0.971
HMNIGELINKKRTELGLTLEEVGNAVGVSKSTVKKWEDGFISNMRRDKISKLAKVLEMNPVSLITGE | 0.00376
HMNIGSKLRYLIEEANITQRQLADALHISPSALNGYINQGKEPDYATLVRIADYFHTSTDYLLGHSNIR | -0.806
HMNIIATHTVPAIEQKIRLQEYAISIFPQINSRSALKKAIAKKLVLLDGERASTADWIQPGQKIELLEDK | -1.37
HMNILAPFWERFGLSAFAAGNYDRAEGYFRKLEQKDPNSMSVLRNLGLILMAKGDAEGAEAYLLREEKL | -0.755
HMNILKKDKRLWDENNLNKPLLFELLENYDKEIFELLLTDKDIKAKFFVQAGESYVFKYDDFRFAIEQN | -3.32
HMNIMAQDWISSPMGPISFKSNQHGLVKIGWGEVPRENTEQPNLEFTRKWLVDYFEGKASPLPYF | -0.623
HMNIQGIFGRNLKQKRLEKGMTQEQLAEKAGVSTDTVKRYESGKYDGIRLDMAWYMANALDTPLQALLPP | 0.598
HMNISALKGKIGEVYLKIPAHNAGKGKVLISLKGTHHELYAITRSGEDISSGEFVKVIEIEDEILVVEK | -2.05
HMNITFAENIKQFRKAKSMSMEELGKRLGKAKSSISAWENGKRTPKINELKSISEALGVTISQLLGF | -1.71
HMNIYIEFGRRLAFIRQNSKLSQSQIAQKLNIAQSTYAGYEKGVRKIPLEIIVQLSKILNISPTILILG | -3.84
HMNKADFLRKLDRELSVLDQEERKEILSFYEERFYTGTNYENKTELDIINELENPEIIAKNVLEEYGV | -0.253
HMNKDEFLRRLEDALSGEVPASVIRENLNYYADYLSQELGKGRTMDEIIEEIGEPNIVARTIINSAEAA | 0.184
HMNKDWQDEVALQRYTMITPLLSEDLDNAKRIAMREKIAQDNLTTARSLYRYEKAYRENGFQGLRPTD | -0.252
HMNKEIEDYVATYSSMKAKEAAAIFDTMTSDLDLVAKILEAMSADDRAKILEQMNEENAARLTKMMD | 0.0551
HMNKEQIASNIAEARKRSGLNQSELARRLGIRPQSVQQWEKGTATPKLDRLTAIAQVLGVSLESLTG | -0.0463
HMNKFADLAGNIIYNENGVEVFNFGKYKGQPVAEVFKKDIGYYGWIQNADFPRYTKKVFTAIQLKSK | -1.28
HMNKIDVVEVDMSKPYEDMTVTELQNVILGKLASNGPVTDQMKKDVAENIYHDSLVNWAKSF | 0.883
HMNKIENLSQTILNILRKDHSQAFNYKQIAAKLQLDDPSSRNQIVKKLKDLQGKGTIQEIERGKYILTP | 0.394
HMNKITIDQAKEIALNHAKLTAEQVSFIRTESEFDDGIEKYNIEFYYNNQKYDYDINAVNGQIIQYDLEG | 0.159
HMNKITIEEAKSIALKHSNLDESQVSFIRSEYDFDNGIEKYEIEFYYNNNKYEYEINAKTGDIISYDYDI | -1.02
HMNKKAAYKDMAGYFAEMKSKDAADILSRLKDEDIIGIFNEMPRDMVAEMLQKMDRDKATTLTRKML | 0.444
HMNKKEQYQNIISNFLEKMSEEDRLIFNMHFFKSINISQIARSIDREGYYVKTKIENLLADLKSLMIGNNL | -2.95

Sequence | soluble fraction (log2)
HMNKKETRLNNFIHFLKIRNSITVKEMANHLNVSEMTVRRDIKELTADHTINFENGKIMFNPQSSL | -1.82
HMNKLIIDAAEDKIFFMIMNNDISYNISHENTKINFEKLIILINDFLSSKKLKINDITGLYV | 0.123
HMNKNIKIPNISNLSREDAESVLKESGISVSTEIKEVESDTIEKGKVVKTEPSIGSTVKQGRTITIYISSG | 0.161
HMNKRYKVQVTTDNLKIRKGAGTSYPVVGHITDKGTYTIVETSGKWGKLLSGAGWIYLSYTKK | -2.13
HMNKTEIISILEKIVLPTQIRNINIFGSEVIIDLNIDNPSLHAKKKLEKSIINSFDKNHKIIINFNVE | -0.238
HMNKTLTEQIYDELKSAIIELELKPGEFVTEEYLAEQLGVSRTPLKSAISKLIFEGLMAYEVGKGTYIS | -1.11
HMNKVQTFIIEKHIKEVFEHTNRTYYRSGQYYFQTRDEFSMALKRFLKDREPNKKNWIDSIINRA | -0.945
HMNKYQFESKIHIYRATKRMTQQELADLVGVSRQTIMQLERNRYNPSMMLAYGIAKVFDVTIEDLFDFSEV | -3.18
HMNKYYQQLLQADPTGFIDPFKDLGTYDSRLNTFKEPVSELLNPFSGRPYSKIWQKRIETMREIFISYIKS | -2.8
HMNLDVEQIKKEALNQLIEIGNENDGIVTIKDFKKIDDISSLDEDDIEDIRNLLIENNIEIFE | 0.0781
HMNLEQTIVLGKRLFNNALDTLGKKQRSIKNKQINKLLELLNFKNMNELYQSIGVGDKNPLLMAQMML | -0.775
HMNLESNQYVIDISDSQVINKDEFETILNQNKTKDIVIKSNNNVTFTFEKGSMIGAEGKDNYDFSSQVNY | -0.0852
HMNLFNEIEKQYQALQDRSSASLVDLRHLLLDIEELVNSPDYQALAPDQRSTLQAARKELMRRIQKQEN | 0.819
HMNLGDSLFHARRKQGLSQEAVAEQLGVSRQTVSKWEANETLPDIRQSKLMAKLYHTSLDELI | 0.0881
HMNLLDYTTLYVTSDGKSVSFGIAGKEIPVSYIAQEAPGTVVIDDTIRIPRKYDMEYILKRFNES | -1.2
HMNLLGDNIRKLRLEKGLGLNEVARLANITGGYLSSIENNKRTNVGTEILESIAKAIGVSVSDFYL | -0.347
HMNLLGERIREIRMEMGLTAKELAQRASVTPGYISQIEHDQIKPSMNVMMRIAEVLNVPMAALLM | -2.38
HMNLLPAGTYKLKDLVTAEDEEIGAKKGDVVIAHEDTPPSDRVLGVDIFPVIHKNTSKKIYVSLEDI | 0.322
HMNLMQIHVARPPNQLGVFSQEEVAAGLQSGRFLPTDQAWRDGMSAWTPLSQWAEFSSVVAAV | -0.217
HMNLNLDITTYKLEELENLLKLKPNYKQEQIFEAKTKMEKFILKSNLNESKREELYIFLDNIYNKLTNNLL | -2.94
HMNLPISDREKELLTLLSKGLLYKEIASKLDITIGTVKQHIHNIYHKLHVSNKTEALNLFNK | -1
HMNLRLKEVLDEKNMSLVTLSEKTGIEKGNLSAISNNKKNPTVETLSKIAKALQISLAELFESPP | 0.416
